Data reported in publication PMC5379939.

Legend:
GST-ELKS1(771–976) = assay: pull-down; settings: scale: GST-ELKS1(771–976) per MBP-bMunc13-2(1–305)
EYFP-ELKS1(771–976) = assay: FRET or BRET

| stoichiometry N (GST-ELKS1(771–976)) | fold of the FRET value of cells coexpressing soluble ECFP and EYFP (EYFP-ELKS1(771–976)) [fold] | normalized FRET value (EYFP-ELKS1(771–976)) | Substance |
| --- | --- | --- | --- |
| 1.69 | – | – | MBP-bMunc13-2(1–305) (domain or fragment) |
| – | 7 | 0.07 | ECFP-bMunc13-2(70–204) (domain or fragment) |
